Assay [1] concerns the target N-terminal FLAG-tagged seipin A212P (human) (UniProt Q96G97). Briefly: co-IP; HEK293 cells co-transfected, lysed 48 h later in ODG lysis buffer (50 mM n-octyl-β-D-glucopyranoside, 50 mM Tris pH 6.8, 150 mM NaCl, 1 mM EDTA); anti-FLAG-agarose beads 2 h at 4 °C, eluted with 3xFLAG peptide; immunoblot for FLAG and Myc.
Assay [2] addresses N-terminal FLAG-tagged seipin L91P (human) (UniProt Q96G97). The assay is described as above.
The target of assay [3] is Seipin-Myc, wild type (human) (UniProt Q96G97). The experiment in a line: atomic force microscopy; proteins co-isolated on anti-Myc beads from co-transfected tsA 201 cells, eluted and imaged in tapping mode in air; particle volumes and angles.
Assay [4] addresses T1, Myc-tagged human GPAT3 (GPAT3-Myc), Q53EU6.
T1 chain: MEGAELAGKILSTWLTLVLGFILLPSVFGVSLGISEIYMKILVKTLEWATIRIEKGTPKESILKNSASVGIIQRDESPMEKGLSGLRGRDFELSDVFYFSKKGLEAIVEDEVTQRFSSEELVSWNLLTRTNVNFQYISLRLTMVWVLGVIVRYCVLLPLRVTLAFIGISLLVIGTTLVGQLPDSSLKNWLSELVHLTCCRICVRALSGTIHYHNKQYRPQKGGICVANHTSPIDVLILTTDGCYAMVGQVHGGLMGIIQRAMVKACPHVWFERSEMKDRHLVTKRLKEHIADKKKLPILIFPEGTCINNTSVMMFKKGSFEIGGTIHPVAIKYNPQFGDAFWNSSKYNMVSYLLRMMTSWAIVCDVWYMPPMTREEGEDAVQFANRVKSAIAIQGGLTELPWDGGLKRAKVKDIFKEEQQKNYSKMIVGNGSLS
Briefly: co-immunoprecipitation (anti-FLAG IP, immunoblot quantification). As to conditions: chain shown with the change; HEK293 cells; n = 3; parent: est. 1.0; read off a plot.

B1: Myc-tagged human GPAT3 (GPAT3-Myc) (enzyme)
chain: MEGAELAGKILSTWLTLVLGFILLPSVFGVSLGISEIYMKILVKTLEWATIRIEKGTPKESILKNSASVGIIQRDESPMEKGLSGLRGRDFELSDVFYFSKKGLEAIVEDEVTQRFSSEELVSWNLLTRTNVNFQYISLRLTMVWVLGVIVRYCVLLPLRVTLAFIGISLLVIGTTLVGQLPDSSLKNWLSELVHLTCCRICVRALSGTIHYHNKQYRPQKGGICVANHTSPIDVLILTTDGCYAMVGQVHGGLMGIIQRAMVKACPHVWFERSEMKDRHLVTKRLKEHIADKKKLPILIFPEGTCINNTSVMMFKKGSFEIGGTIHPVAIKYNPQFGDAFWNSSKYNMVSYLLRMMTSWAIVCDVWYMPPMTREEGEDAVQFANRVKSAIAIQGGLTELPWDGGLKRAKVKDIFKEEQQKNYSKMIVGNGSLS
For the molecule B1, the reduction of the co-immunoprecipitation against wild-type seipin in assay [1] and in assay [2] was 50% throughout.

B2: FLAG-GPAT3 (enzyme)
chain: MEGAELAGKILSTWLTLVLGFILLPSVFGVSLGISEIYMKILVKTLEWATIRIEKGTPKESILKNSASVGIIQRDESPMEKGLSGLRGRDFELSDVFYFSKKGLEAIVEDEVTQRFSSEELVSWNLLTRTNVNFQYISLRLTMVWVLGVIVRYCVLLPLRVTLAFIGISLLVIGTTLVGQLPDSSLKNWLSELVHLTCCRICVRALSGTIHYHNKQYRPQKGGICVANHTSPIDVLILTTDGCYAMVGQVHGGLMGIIQRAMVKACPHVWFERSEMKDRHLVTKRLKEHIADKKKLPILIFPEGTCINNTSVMMFKKGSFEIGGTIHPVAIKYNPQFGDAFWNSSKYNMVSYLLRMMTSWAIVCDVWYMPPMTREEGEDAVQFANRVKSAIAIQGGLTELPWDGGLKRAKVKDIFKEEQQKNYSKMIVGNGSLS
Take B2: the percent of seipin particles decorated by two GPAT3 particles in assay [3] is 10.4%.

B3: N-terminal FLAG-tagged wild-type seipin (WT), Q96G97 T78A (protein)
chain: MVNDPPVPALLWAQEVGQVLAGRARRLLLQFGVLFCTILLLLWVSVFLYGSFYYSYMPTVSHLSPVHFYYRTDCDSSATSLCSFPVANVSLTKGGRDRVLMYGQPYRVTLELELPESPVNQDLGMFLVTISCYTRGGRIISTSSRSVMLHYRSDLLQMLDTLVFSSLLLFGFAEQKQLLEVELYADYRENSYVPTTGAIIEIHSKRIQLYGAYLRIHAHFTGLRYLLYNFPMTCAFIGVASNFTFLSVIVLFSYMQWVWGGIWPRHRFSLQVNIRKRDNSRKEVQRRISAHQPGPEGQEESTPQSDVTEDGESPEDPSGTEGQLSEEEKPDQQPLSGEEELEPEASDGSGSWEDAALLTEANLPAPAPASASAPVLETLGSSEPAGGALRQRPTCSSS
For B3, the ratio to parent in assay [4] was found to be 0.84 fold vs WT.
